In article PMC8260793, “A split protease-E. coli ClpXP system quantifies protein–protein interactions in Escherichia coli cells” (Communications Biology, 2021) one finds percent of parent data, which are given here for 28 variants.

First the molecules themselves.
B1: Cas3 of E. coli K12 Type I-E CRISPR/Cas complex [E. coli K12] / Cas5 of E. coli K12 Type I-E CRISPR/Cas complex [E. coli K12] (parent complex)
chain 1: MEPFKYICHYWGKSSKSLTKGNDIHLLIYHCLDVAAVADCWWDQSVVLQNTFCRNEMLSKQRVKAWLLFFIALHDIGKFDIRFQYKSAESWLKLNPATPSLNGPSTQMCRKFNHGAAGLYWFNQDSLSEQSLGDFFSFFDAAPHPYESWFPWVEAVTGHHGFILHSQDQDKSRWEMPASLASYAAQDKQAREEWISVLEALFLTPAGLSINDIPPDCSSLLAGFCSLADWLGSWTTTNTFLFNEDAPSDINALRTYFQDRQQDASRVLELSGLVSNKRCYEGVHALLDNGYQPRQLQVLVDALPVAPGLTVIEAPTGSGKTETALAYAWKLIDQQIADSVIFALPTQATANAMLTRMEASASHLFSSPNLILAHGNSRFNHLFQSIKSRAITEQGQEEAWVQCCQWLSQSNKKVFLGQIGVCTIDQVLISVLPVKHRFIRGLGIGRSVLIVDEVHAYDTYMNGLLEAVLKAQADVGGSVILLSATLPMKQKQKLLDTYGLHTDPVENNSAYPLINWRGVNGAQRFDLLAHPEQLPPRFSIQPEPICLADMLPDLTMLERMIAAANAGAQVCLICNLVDVAQVCYQRLKELNNTQVDIDLFHARFTLNDRREKENRVISNFGKNGKRNVGRILVATQVVEQSLDVDFDWLITQHCPADLLFQRLGRLHRHHRKYRPAGFEIPVATILLPDGEGYGRHEHIYSNVRVMWRTQQHIEELNGASLFFPDAYRQWLDSIYDDAEMDEPEWVGNGMDKFESAECEKRFKARKVLQWAEEYSLQDNDETILAVTRDGEMSLPLLPYVQTSSGKQLLDGQVYEDLSHEQQYEALALNRVNVPFTWKRSFSEVVDEDGLLWLEGKQNLDGWVWQGNSIVITYTGDEGMTRVIPANPK
chain 2: MRSYLILRLAGPMQAWGQPTFEGTRPTGRFPTRSGLLGLLGACLGIQRDDTSSLQALSESVQFAVRCDELILDDRRVSVTGLRDYHTVLGAREDYRGLKSHETIQTWREYLCDASFTVALWLTPHATMVISELEKAVLKPRYTPYLGRRSCPLTHPLFLGTCQASDPQKALLNYEPVGGDIYSEESVTGHHLKFTARDEPMITLPRQFASREWYVIKGGMDVSQ
B2: Cas3 of E. coli K12 Type I-E CRISPR/Cas complex [E. coli K12] / Cas6 of E. coli K12 Type I-E CRISPR/Cas complex [E. coli K12] (parent complex)
chain 1: B1 chain 1
chain 2: MYLSKVIIARAWSRDLYQLHQGLWHLFPNRPDAARDFLFHVEKRNTPEGCHVLLQSAQMPVSTAVATVIKTKQVEFQLQVGVPLYFRLRANPIKTILDNQKRLDSKGNIKRCRVPLIKEAEQIAWLQRKLGNAARVEDVHPISERPQYFSGDGKSGKIQTVCFEGVLTINDAPALIDLVQQGIGPAKSMGCGLLSLAPL
B3: Cas3 of E. coli K12 Type I-E CRISPR/Cas complex [E. coli K12] / Cas11 of E. coli K12 Type I-E CRISPR/Cas complex [E. coli K12] (parent complex)
chain 1: B1 chain 1
chain 2: MADEIDAMALYRAWQQLDNGSCAQIRRVSEPDELRDIPAFYRLVQPFGWENPRHQQALLRMVFCLSAGKNVIRHQDKKSEQTTGISLGRALANSGRINERRIFQLIRADRTADMVQLRRLLTHAEPVLDWPLMARMLTWWGKRERQQLLEDFVLTTNKNA
B4: Cas3 of E. coli K12 Type I-E CRISPR/Cas complex [E. coli K12] / Cas7 of E. coli K12 Type I-E CRISPR/Cas complex [E. coli K12] (parent complex)
chain 1: B1 chain 1
chain 2: MSNFINIHVLISHSPSCLNRDDMNMQKDAIFGGKRRVRISSQSLKRAMRKSGYYAQNIGESSLRTIHLAQLRDVLRQKLGERFDQKIIDKTLALLSGKSVDEAEKISADAVTPWVVGEIAWFCEQVAKAEADNLDDKKLLKVLKEDIAAIRVNLQQGVDIALSGRMATSGMMTELGKVDGAMSIAHAITTHQVDSDIDWFTAVDDLQEQGSAHLGTQEFSSGVFYRYANINLAQLQENLGGASREQALEIATHVVHMLATEVPGAKQRTYAAFNPADMVMVNFSDMPLSMANAFEKAVKAKDGFLQPSIQAFNQYWDRVANGYGLNGAAAQFSLSDVDPITAQVKQMPTLEQLKSWVRNNGEA
B5: Cas3 of E. coli K12 Type I-E CRISPR/Cas complex [E. coli K12] / Cas8 of E. coli K12 Type I-E CRISPR/Cas complex [E. coli K12] (parent complex)
chain 1: B1 chain 1
chain 2: MNLLIDNWIPVRPRNGGKVQIINLQSLYCSRDQWRLSLPRDDMELAALALLVCIGQIIAPAKDDVEFRHRIMNPLTEDEFQQLIAPWIDMFYLNHAEHPFMQTKGVKANDVTPMEKLLAGVSGATNCAFVNQPGQGEALCGGCTAIALFNQANQAPGFGGGFKSGLRGGTPVTTFVRGIDLRSTVLLNVLTLPRLQKQFPNESHTENQPTWIKPIKSNESIPASSIGFVRGLFWQPAHIELCDPIGIGKCSCCGQESNLRYTGFLKEKFTFTVNGLWPHPHSPCLVTVKKGEVEEKFLAFTTSAPSWTQISRVVVDKIIQNENGNRVAAVVNQFRNIAPQSPLELIMGGYRNNQASILERRHDVLMFNQGWQQYGNVINEIVTVGLGYKTALRKALYTFAEGFKNKDFKGAGVSVHETAERHFYRQSELLIPDVLANVNFSQADEVIADLRDKLHQLCEMLFNQSVAPYAHHPKLISTLALARATLYKHLRELKPQGGPSNG
B6: Cas3 of E. coli K12 Type I-E CRISPR/Cas complex [E. coli K12] / Cas1 of E. coli K12 Type I-E CRISPR/Cas complex [E. coli K12] (parent complex)
chain 1: B1 chain 1
chain 2: MTWLPLNPIPLKDRVSMIFLQYGQIDVIDGAFVLIDKTGIRTHIPVGSVACIMLEPGTRVSHAAVRLAAQVGTLLVWVGEAGVRVYASGQPGGARSDKLLYQAKLALDEDLRLKVVRKMFELRFGEPAPARRSVEQLRGIEGSRVRATYALLAKQYGVTWNGRRYDPKDWEKGDTINQCISAATSCLYGVTEAAILAAGYAPAIGFVHTGKPLSFVYDIADIIKFDTVVPKAFEIARRNPGEPDREVRLACRDIFRSSKTLAKLIPLIEDVLAAGEIQPPAPPEDAQPVAIPLPVSLGDAGHRSS
B7: Cas3 of E. coli K12 Type I-E CRISPR/Cas complex [E. coli K12] / Cas2 of E. coli K12 Type I-E CRISPR/Cas complex [E. coli K12] (parent complex)
chain 1: B1 chain 1
chain 2: MSMLVVVTENVPPRLRGRLAIWLLEVRAGVYVGDVSAKIREMIWEQIAGLAEEGNVVMAWATNTETGFEFQTFGLNRRTPVDLDGLRLVSFLPV

The variants in one test derive from B1. Description: SPEC system (split protease-E. coli ClpXP) in E. coli cells; parent: 100; read off a plot.
Turning to chain 1 K78A, the percent of parent was around 67%.

As to chain 1 D452N, the percent of parent was around 110%.

As to chain 1 H74A, the percent of parent was around 45%.

In a further test the parent is B2. The test is described as above.
With chain 1 K320N, the percent of parent is around 120%.

Consider chain 1 S483A, chain 1 T485A, for which the percent of parent is around 130%.

For chain 1 H74A, the percent of parent is around 150%.

For the variant chain 1 D452N, the percent of parent was around 140%.

As for chain 1 K78A, the percent of parent is around 95%.

Regarding chain 1 D75A, the percent of parent was around 110%.

In a further test the parent is B3. The description is as above.
As to chain 1 H74A, the percent of parent was around 110%.

Turning to chain 1 S483A, chain 1 T485A, the percent of parent is around 73%.

In the case of chain 1 K78A, the percent of parent is around 110%.

In the next test the parent is B4. The description is as above.
On to chain 1 K320N, for which the percent of parent was around 120%.

On to chain 1 D452N, for which the percent of parent is around 120%.

On to chain 1 S483A, chain 1 T485A, for which the percent of parent is around 25%.

For the variant chain 1 K78A, the percent of parent was around 73%.

The variants in another test derive from B5. The description is as above.
As for chain 1 S483A, chain 1 T485A, the percent of parent is around 97%.

Take chain 1 H74A: the percent of parent is around 82%.

Take chain 1 K320N: the percent of parent is around 83%.

The variants in the next test derive from B6. The test is described as above.
For the variant chain 1 H74A, the percent of parent was around 60%.

Take chain 1 K78A: the percent of parent was around 50%.

chain 1 D452N: the percent of parent was around 130%.

Consider chain 1 K320N, for which the percent of parent was around 120%.

For chain 1 S483A, chain 1 T485A, the percent of parent is around 110%.

Variants of B7 are the subject of a further test. The description is as above.
As to chain 1 D452N, the percent of parent was around 130%.

Consider chain 1 K78A, for which the percent of parent is around 110%.

On to chain 1 K320N, for which the percent of parent was around 130%.

chain 1 H74A: the percent of parent was around 130%.
